Test results reported in paper PMC8648671.

Columns and labels:
[1] = target: βPix-SH3 mutant-Myc (W43K)

Rac1 activity (Rac1-GTP by GST-PBD pull-down) in HEK293T cells transfected with the Flag-tagged SH3 mutant of βPix and Dyn2-GFP [1]: 50% | Rac1 activity (Rac1-GTP by GST-PBD pull-down, against total Rac1) in HEK293T cells transfected with Flag-βPix and Dyn2-GFP, relative to non-transfected cells (Flag-βPix): 3 fold
B1: Dyn2-GFP (natural protein)
chain: MGNRGMEELIPLVNKLQDAFSSIGQSCHLDLPQIAVVGGQSAGKSSVLENFVGRDFLPRGSGIVTRRPLILQLIFSKTEYAEFLHCKSKKFTDFDEVRQEIEAETDRVTGTNKGISPVPINLRVYSPHVLNLTLIDLPGITKVPVGDQPPDIEYQIKDMILQFISRESSLILAVTPANMDLANSDALKLAKEVDPQGLRTIGVITKLDLMDEGTDARDVLENKLLPLRRGYIGVVNRSQKDIEGRKDIRAALAAERKFFLSHPAYRHMADRMGTPHLQKTLNQQLTNHIRESLPTLRSKLQSQLLSLEKEVEEYKNFRPDDPTRKTKALLQMVQQFGVDFEKRIEGSGDQVDTLELSGGARINRIFHERFPFELVKMEFDEKDLRREISYAIKNIHGVRTGLFTPDLAFEAIVKKQVVKLKEPCLKCVDLVIQELISTVRQCTSKLSSYPRLREETERIVTTYIREREGRTKDQILLLIDIEQSYINTNHEDFIGFANAQQRSTQLNKKRAIPNQGEILVIRRGWLTINNISLMKGGSKEYWFVLTAESLSWYKDEEEKEKKYMLPLDNLKIRDVEKGFMSNKHVFAIFNTEQRNVYKDLRQIELACDSQEDVDSWKASFLRAGVYPEKDQAENEDGAQENTFSMDPQLERQVETIRNLVDSYVAIINKSIRDLMPKTIMHLMINNTKAFIHHELLAYLYSSADQSSLMEESAEQAQRRDDMLRMYHALKEALNIIGDISTSTVSTPVPPPVDDTWLQNTSSHSPTPQRRPVSSVHPPGRPPAVRGPTPGPPLIPMPVGATSSFSAPPIPSRPGPQNVFANNDPFSAPPQIPSRPARIPPGIPPGVPSRRAPAAPSRPTIIRPAEPSLLD
